Results reported in paper PMC2671584.

Tests used:
Assay in all cases: SPR; BIAcore 3000; ECM proteins immobilised on CM5 chips, endostatin injected at 0, 10, 50, 200 and 400 nM; 0.02 M Tris-HCl, 0.11 M NaCl, 0.05% P-20; 25 °C; flow 20 μl/min; global fit to the 1:1 Langmuir model; triplicates
mouse perlecan (mouse) = mouse perlecan (mouse) (UniProt Q05793)
[1] = molecular target: mouse laminin-1-nidogen-1 complex (mouse) (UniProt P19137)
[2] = molecular target: recombinant microfibrillar component fibulin-1 (UniProt Q08879)
Sequence of UniProt Q08879 (Q08879 30-705): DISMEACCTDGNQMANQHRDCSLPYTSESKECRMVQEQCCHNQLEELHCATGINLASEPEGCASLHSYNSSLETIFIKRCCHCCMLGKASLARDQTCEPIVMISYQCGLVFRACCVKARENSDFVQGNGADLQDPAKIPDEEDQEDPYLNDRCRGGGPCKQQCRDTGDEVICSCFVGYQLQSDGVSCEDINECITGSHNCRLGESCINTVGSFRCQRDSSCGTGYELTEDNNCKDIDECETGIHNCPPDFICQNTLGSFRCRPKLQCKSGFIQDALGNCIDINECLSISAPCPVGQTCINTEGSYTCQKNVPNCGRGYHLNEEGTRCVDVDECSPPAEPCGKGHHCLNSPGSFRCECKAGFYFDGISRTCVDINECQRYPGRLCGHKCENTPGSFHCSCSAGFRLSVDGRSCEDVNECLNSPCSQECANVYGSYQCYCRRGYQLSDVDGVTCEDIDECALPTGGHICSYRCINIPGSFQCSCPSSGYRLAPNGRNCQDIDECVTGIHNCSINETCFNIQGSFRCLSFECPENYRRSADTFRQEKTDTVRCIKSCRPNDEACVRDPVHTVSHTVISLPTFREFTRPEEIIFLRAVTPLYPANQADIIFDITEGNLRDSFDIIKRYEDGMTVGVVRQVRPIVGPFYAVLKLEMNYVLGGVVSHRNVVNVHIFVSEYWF

Sequence of UniProt Q05793 (Q05793 22-3707): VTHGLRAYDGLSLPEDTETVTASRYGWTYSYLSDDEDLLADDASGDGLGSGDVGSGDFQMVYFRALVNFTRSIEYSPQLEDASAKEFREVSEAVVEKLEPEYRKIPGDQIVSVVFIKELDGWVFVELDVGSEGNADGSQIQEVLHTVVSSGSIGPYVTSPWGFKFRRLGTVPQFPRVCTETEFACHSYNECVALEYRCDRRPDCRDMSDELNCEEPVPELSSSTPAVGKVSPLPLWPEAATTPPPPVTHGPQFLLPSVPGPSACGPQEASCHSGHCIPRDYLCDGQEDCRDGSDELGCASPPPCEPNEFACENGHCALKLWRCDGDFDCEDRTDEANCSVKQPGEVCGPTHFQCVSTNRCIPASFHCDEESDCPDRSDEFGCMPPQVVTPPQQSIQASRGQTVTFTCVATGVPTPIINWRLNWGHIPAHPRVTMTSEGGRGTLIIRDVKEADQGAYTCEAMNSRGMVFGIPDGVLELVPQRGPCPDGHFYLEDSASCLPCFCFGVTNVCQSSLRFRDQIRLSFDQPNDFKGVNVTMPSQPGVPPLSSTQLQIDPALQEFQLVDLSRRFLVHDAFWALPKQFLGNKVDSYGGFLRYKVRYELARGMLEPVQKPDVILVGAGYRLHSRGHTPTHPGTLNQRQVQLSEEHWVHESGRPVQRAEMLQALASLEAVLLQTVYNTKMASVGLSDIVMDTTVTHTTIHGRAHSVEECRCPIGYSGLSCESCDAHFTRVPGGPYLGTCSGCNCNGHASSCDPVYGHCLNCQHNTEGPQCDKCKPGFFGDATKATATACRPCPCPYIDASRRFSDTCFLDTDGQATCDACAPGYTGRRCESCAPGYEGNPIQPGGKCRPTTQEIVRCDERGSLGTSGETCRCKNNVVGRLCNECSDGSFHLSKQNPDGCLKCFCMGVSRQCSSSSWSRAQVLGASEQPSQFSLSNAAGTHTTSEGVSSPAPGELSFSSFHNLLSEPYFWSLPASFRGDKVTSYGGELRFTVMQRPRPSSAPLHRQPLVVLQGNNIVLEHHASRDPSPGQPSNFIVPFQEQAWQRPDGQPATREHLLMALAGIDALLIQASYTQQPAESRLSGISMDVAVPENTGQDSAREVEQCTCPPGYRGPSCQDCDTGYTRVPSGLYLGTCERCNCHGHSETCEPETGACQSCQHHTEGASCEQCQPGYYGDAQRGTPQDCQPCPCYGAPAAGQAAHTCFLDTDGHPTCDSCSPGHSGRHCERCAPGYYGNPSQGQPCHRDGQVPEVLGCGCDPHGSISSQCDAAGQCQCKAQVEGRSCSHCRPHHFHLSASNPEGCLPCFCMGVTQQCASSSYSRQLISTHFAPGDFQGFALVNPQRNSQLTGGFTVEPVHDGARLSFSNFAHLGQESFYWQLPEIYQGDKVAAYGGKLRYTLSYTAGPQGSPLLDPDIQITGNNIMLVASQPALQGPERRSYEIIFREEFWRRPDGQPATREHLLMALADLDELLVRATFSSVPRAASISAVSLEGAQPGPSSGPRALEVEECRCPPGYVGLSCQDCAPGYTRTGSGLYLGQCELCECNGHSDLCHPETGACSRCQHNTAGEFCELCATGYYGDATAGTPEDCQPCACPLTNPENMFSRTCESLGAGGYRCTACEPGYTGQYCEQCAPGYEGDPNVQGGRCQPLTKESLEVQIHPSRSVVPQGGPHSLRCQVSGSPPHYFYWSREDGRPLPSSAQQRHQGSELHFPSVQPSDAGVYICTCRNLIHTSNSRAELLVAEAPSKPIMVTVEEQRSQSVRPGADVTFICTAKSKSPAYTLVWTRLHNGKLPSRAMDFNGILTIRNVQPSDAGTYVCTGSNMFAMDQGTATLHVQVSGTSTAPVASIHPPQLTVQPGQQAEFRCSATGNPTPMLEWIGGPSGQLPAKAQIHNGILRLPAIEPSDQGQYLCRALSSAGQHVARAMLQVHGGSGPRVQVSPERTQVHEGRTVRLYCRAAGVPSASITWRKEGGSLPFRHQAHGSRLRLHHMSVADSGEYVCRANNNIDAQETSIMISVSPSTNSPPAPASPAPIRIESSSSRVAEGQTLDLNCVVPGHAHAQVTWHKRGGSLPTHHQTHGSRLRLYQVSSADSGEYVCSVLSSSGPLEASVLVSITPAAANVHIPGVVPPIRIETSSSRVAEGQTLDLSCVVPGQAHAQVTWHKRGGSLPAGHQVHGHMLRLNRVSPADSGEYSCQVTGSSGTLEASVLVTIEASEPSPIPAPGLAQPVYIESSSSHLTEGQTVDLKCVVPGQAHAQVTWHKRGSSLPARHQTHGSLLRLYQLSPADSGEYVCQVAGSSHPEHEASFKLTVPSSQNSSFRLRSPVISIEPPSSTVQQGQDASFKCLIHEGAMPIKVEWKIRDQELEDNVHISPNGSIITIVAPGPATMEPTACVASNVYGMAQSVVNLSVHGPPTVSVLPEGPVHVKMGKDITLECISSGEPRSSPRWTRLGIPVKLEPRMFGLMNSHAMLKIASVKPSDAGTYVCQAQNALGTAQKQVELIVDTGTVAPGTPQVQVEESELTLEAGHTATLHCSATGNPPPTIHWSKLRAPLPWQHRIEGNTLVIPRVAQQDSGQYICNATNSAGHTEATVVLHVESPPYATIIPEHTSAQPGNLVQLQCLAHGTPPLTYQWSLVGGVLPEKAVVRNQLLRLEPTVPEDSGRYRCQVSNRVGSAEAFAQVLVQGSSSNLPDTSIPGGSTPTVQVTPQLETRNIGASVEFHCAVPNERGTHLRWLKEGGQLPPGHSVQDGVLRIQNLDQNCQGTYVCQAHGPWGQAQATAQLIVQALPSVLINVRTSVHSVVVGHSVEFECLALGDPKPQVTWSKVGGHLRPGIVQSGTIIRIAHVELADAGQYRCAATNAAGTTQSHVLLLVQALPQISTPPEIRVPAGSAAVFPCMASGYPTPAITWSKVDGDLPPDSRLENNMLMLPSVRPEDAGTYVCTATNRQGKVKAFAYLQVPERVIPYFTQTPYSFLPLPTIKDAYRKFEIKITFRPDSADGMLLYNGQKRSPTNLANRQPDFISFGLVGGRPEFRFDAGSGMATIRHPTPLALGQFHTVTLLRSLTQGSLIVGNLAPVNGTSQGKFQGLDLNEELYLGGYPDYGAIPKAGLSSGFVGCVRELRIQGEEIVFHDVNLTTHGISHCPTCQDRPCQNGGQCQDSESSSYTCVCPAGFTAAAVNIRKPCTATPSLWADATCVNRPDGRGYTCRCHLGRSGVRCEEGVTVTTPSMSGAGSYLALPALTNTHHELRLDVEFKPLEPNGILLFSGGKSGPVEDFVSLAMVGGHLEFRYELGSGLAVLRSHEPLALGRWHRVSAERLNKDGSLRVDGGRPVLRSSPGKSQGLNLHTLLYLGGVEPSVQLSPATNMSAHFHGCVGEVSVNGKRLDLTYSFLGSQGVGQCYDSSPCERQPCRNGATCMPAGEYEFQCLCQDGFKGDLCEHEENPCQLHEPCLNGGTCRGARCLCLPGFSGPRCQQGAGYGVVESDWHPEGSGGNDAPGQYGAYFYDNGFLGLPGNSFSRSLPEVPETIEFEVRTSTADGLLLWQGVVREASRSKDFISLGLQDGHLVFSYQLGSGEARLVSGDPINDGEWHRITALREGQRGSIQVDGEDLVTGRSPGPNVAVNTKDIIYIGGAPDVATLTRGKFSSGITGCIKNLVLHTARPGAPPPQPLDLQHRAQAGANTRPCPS

Row | Kd (mouse perlecan (mouse)) | Kd [1] | Kd [2] | Substance
1 | 5.19 nM | 6.17 nM | 6.95 nM | p.A1381T endostatin (mutated endostatin domain, c.3601G>A) (domain or fragment)
2 | 5.53 nM | 3.48 nM | 3.1 nM | wild type human endostatin (endostatin domain of type XVIII collagen) (domain or fragment)
